Measured values: JP2016135753A

Target: SLA-1*0401/β2M (HEK293トランスフェクタント細胞表面) (pig) (UniProt Q07717)
Assay: flow cytometry of hybridoma supernatant on SLA-1*0401/β2M HEK293 transfectants

- 平均蛍光強度(MFI): 3000
B1: モノクローナル抗体X2F6 (antibody, mouse IgG2a, kappa, V domains shown)
VH: QVQLQQSGAELVKPGASVKLSCKASGYTFTSYDINWVRQRPEQGLEWIGWIYPGDGSTKYNEKFKGKATLTTDKSSSTAYMQLSRLTSEDSAVYFCASPYYYGSSPFAYWGQGTLVTVSA
VL: DIQMTQSPASLSASVGETVTITCRASENIYSYLAWYQQKQGKSPQLLVYNAKTLAEGVPSRFSGSGSGTQFSLKINSLQPEDFGSYYCQHHYGTPRTFGGGTKLEIKR
